# Test results from the supplement of paper PMC10899765.
# Key:
# Conditions in all cases: 20 nM; 72 h
# MCF10A [1] = assay: percent viability (nuclei count relative to siNT); higher = more viable cells
# Protocol: (§1)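 After 72 h, cells were fixed and stained with Hoechst and anti-fibrillarin, and nucleoli per nucleus were counted with CellProfiler. Values are plate-adjusted percent effect for the one-nucleolus and 5+ nucleoli phenotypes, normalised to siNT (0%) and to the positive controls siNOL11 or siKIF11 (100%), as the mean of biological triplicates. Percent viability is the nuclei count relative to siNT.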
# MCF10A [2] = assay: one-nucleolus phenotype percent effect (relative to siNT 0% and siNOL11 100%); higher = more cells with one nucleolus (ribosome biogenesis inhibition)
# Protocol: as §1
# MCF10A [3] = assay: 5+ nucleoli phenotype percent effect (relative to siNT 0% and siKIF11 100%); higher = more cells with five or more nucleoli
# Protocol: as §1
Sequence,percent viability (MCF10A [1]) [%],one-nucleolus phenotype percent effect (MCF10A [2]) [%],5+ nucleoli phenotype percent effect (MCF10A [3]) [%]
UCCGUACAAACUCUGCUGUG [hsa-miR-3678-5p],64.4,39.4,-49.2
CAAAUGAGCUUAAUUUCCUUUU [hsa-miR-1252-3p],160,-15.1,37.8
AGGGAGGGUGUGGUAUGGAUGU [hsa-miR-6883-5p],42,8.82,-4.87
UAGCAGCACAUCAUGGUUUACA [hsa-miR-15b-5p],26.5,26.9,-4.86
UCUAUACAGACCCUGGCUUUUC [hsa-miR-1284],75.8,-16.5,31.3
GGAGGGGUCCCGCACUGGGAGG [hsa-miR-1914-3p],126,-23.7,46.6
UGUCUUUCUUCUCUCCCUUGCAG [hsa-miR-6830-3p],19.9,58,-30.3
UUUAGGAUAAGCUUGACUUUUG [hsa-miR-651],140,-20.4,33.3
ACUGACAGGAGAGCAUUUUGA [hsa-miR-3660],55,-1.95,21.1
UAGGACUGUGCUUGGCACAUAG [hsa-miR-3169],27.4,1.07,20
AUUGUCCUUGCUGUUUGGAGAU [hsa-miR-2355-3p],55.4,-8.98,-3.53
GCAGCAGAGAAUAGGACUACGUC [hsa-miR-922],108,-15,9.43
UAAAUCCCAUGGUGCCUUCUCCU [hsa-miR-605],31.2,53.8,-52.1
UACCCAGAGCAUGCAGUGUGAA [hsa-miR-1912],29.7,39.9,-35.1
UAAUACUGCCUGGUAAUGAUGA [hsa-miR-200b-3p],104,-28.6,93.4
AGGUGCUCCAGGCUGGCUCACA [hsa-miR-3907],4.87,27.7,-22.2
CGAGGGCAUUUCAUGAUGCAGGC [hsa-miR-3616-3p],24.6,43.6,-22
AUACUGUGAAUUUCACUGUCACA [hsa-miR-4693-5p],53.9,2.95,-20.3
UGGAAUGUAAGGAAGUGUGUGG [hsa-miR-206],48.8,48.4,-23.7
UGUGCGCAGGGAGACCUCUCCC [hsa-miR-933],78.3,4.65,-8.45
AAAAACUGCAAUCACUUUUGC [hsa-miR-548az-3p],62,-6.63,7.93
GGUCGUAUGUGUGACGCCAUUU [hsa-miR-489-5p],63,-3.74,-3.91
CAAAGUGCUCAUAGUGCAGGUAG [hsa-miR-20b-5p],58.4,-12,9.26

Sequence,percent viability (MCF10A [1]) [%],one-nucleolus phenotype percent effect (MCF10A [2]) [%],5+ nucleoli phenotype percent effect (MCF10A [3]) [%]
UUAGUCCUGCCUGUAGGUUUA [hsa-miR-4540],39.3,8.27,-37.9
GAACCCAUGAGGUUGAGGCUGCAGU [hsa-miR-1273d],39.1,3.74,-8.88
CUUUUUGCGGUCUGGGCUUGC [hsa-miR-129-5p],39.8,8.91,-6.61
UCAUUUAUCUGUUGGGAAGCUA [hsa-miR-4729],53.1,1.2,-14.5
UGGUCUAGGAUUGUUGGAGGAG [hsa-miR-601],58.5,22.9,-3.95
UGAGAACUGAAUUCCAUAGGCU [hsa-miR-146b-5p],52.1,0.774,-25.8
CAACAAAUCACAGUCUGCCAUA [hsa-miR-7-1-3p],98.9,-2.83,23.6
CUGAUAAGAACAGAGGCCCAGAU [hsa-miR-3161],34.7,18.2,-24.6
AGAGAUGAAGCGGGGGGGCG [hsa-miR-6088],91.6,-6.8,6.48
AGGAGAAGUAAAGUAGAA [hsa-miR-4434],74.7,-15.7,49.4
UAUGGUACUCCUUAAGCUAAC [hsa-miR-5579-5p],86.3,-26.5,101
UCCGAGCCUGGGUCUCCCUCUU [hsa-miR-615-3p],74.9,-6.23,-0.788
UCUAGUGCGGGCGUUCCCG [hsa-miR-6080],85.3,-6.26,23.2
CUACAAAGGGAAGCCCUUUC [hsa-miR-520d-5p],39.7,28.4,-47.9
AGGCUGGGCUGGGACGGA [hsa-miR-4505],12.3,32.2,21.9
UUUGGCAAUGGUAGAACUCACACU [hsa-miR-182-5p],22.8,25,13.1
UAGUUCUUCCCUUUGCCCAAUU [hsa-miR-5584-3p],32.6,5.26,-41
AACCAGCACCCCAACUUUGGAC [hsa-miR-634],4.33,-35.9,-57.2
UUGGGACAUACUUAUGCUAAA [hsa-miR-1302],46.9,-3.28,-1.97
UCCAGUACAGGUCUCUCAUUUC [hsa-miR-4712-5p],81.3,11,-15.1
ACUGGACUAGGAGUCAGAAGG [hsa-miR-378i],32.1,4.21,-12.9
GUAAGCAGGGGCUCUGGGUGA [hsa-miR-6792-5p],30.2,56.4,-36.8
